Assay results from PMC9860668.

Target: rabbit muscle F-actin (rabbit) (UniProt P68135)
Experiment: single-molecule force spectroscopy (scanning force microscopy); Imp-PM19 or ∆D3 mutant covalently bound through a PEG crosslinker to the SFM tip; F-actin_(rabbit) with unlabeled phalloidin immobilised on poly-l-lysine mica; F-buffer pH 6.8; set point 800 pN; retraction speed 2 µm/s; 1000 curves; WLC fit

Substance: Imp-PM19-His (immunodominant membrane protein of 'Candidatus Phytoplasma mali' strain PM19, His-tagged) (natural protein)
- interaction force: 40 to 400 pN
- maximal work of adhesion: 4.5 to 5 aJ
- most frequently observed adhesion: 80 to 90 pN
- rupture force: 100 pN
